In patent JP2000515494A:
Where a chain is given by its changes, count along the chain named. Where “and” joins values, the source holds several entries; their conditions need not be identical. Equal values may be shown once. Blank lines part the entries; values can stand above or below the binder they belong to.

How the values were obtained:
[1] = molecular target: hIL-5/IL-5レセプターα鎖複合体 (hIL-5 captured on IL-5RαFc) (human) (UniProt P05113); assay: ELISA (europium fluorescence), IL-5RαFc on protein A + IL-5, mAb added; concentration 8 ng/ml
[2] = molecular target: hIL-5/IL-5レセプターα鎖複合体 (hIL-5 captured on IL-5RαFc) (human) (UniProt P05113); assay: ELISA (europium fluorescence), IL-5RαFc on protein A + IL-5, mAb added; concentration 32 ng/ml
[3] = molecular target: 組換えヒトIL-5 (recombinant human interleukin-5) (human) (UniProt P05113); assay: cell-based or functional assay
[4] = molecular target: hIL-5/IL-5レセプターα鎖複合体 (hIL-5 captured on IL-5RαFc) (human) (UniProt P05113); assay: ELISA (europium fluorescence), IL-5RαFc on protein A + IL-5, mAb added; concentration 0 ng/ml
[5] = molecular target: hIL-5/IL-5レセプターα鎖複合体 (hIL-5 captured on IL-5RαFc) (human) (UniProt P05113); assay: ELISA (europium fluorescence), IL-5RαFc on protein A + IL-5, mAb added; concentration 2 ng/ml
[6] = molecular target: 組換えヒトIL-5 (recombinant human interleukin-5) (human) (UniProt P05113); assay: optical biosensor (BIAcore)
[7] = molecular target: 組換えヒトIL-5 (recombinant human interleukin-5) (human) (UniProt P05113); assay: optical biosensor
[8] = molecular target: 組換えヒトIL-5 (recombinant human interleukin-5) (human) (UniProt P05113); assay: inhibition of 125I-IL-5 binding to IL-5Rα (Drosophila membranes), dose dependent

B1: ネズミモノクローナル抗体2B6 (antibody, from another filing, V domains shown)
VH: QVQLKESGPGLVAPSQSLSITCTVSGFSLTSYSVHWVRQPPGKGLEWLGVIWASGGTDYNSALMSRLSISKDNSKSQVFLKLNSLQTDDTAMYYCARDPPSSLLRLDYWGQGTTLTVSS
VL: DIVMTQSPSSLSVSAGEKVTMSCKSSQSLLNSGNQKNYLAWYQQKPGQPPKLLIYGASTRESGVPDRFTGSGSGTDFTLSISSVQAEDLAVYYCQNVHSFPFTFGSGTELEIK
結合(個数) [1]: 3200 個数
結合(個数) [2]: 4980 個数
ネズミB13の増殖の阻害 (B13 proliferation assay) [3]: > 70%
結合(個数) [4]: 2770 個数
結合(個数) [5]: 2940 個数
Kd [6]: 0.022 nM and < 0.035 nM

B2: mAb 2B6から由来のFab (recombinant 2B6 Fab, hexa-His) (Fab, from another filing, V domains shown)
VH: B1 VH
VL: B1 VL
Kd [7]: 0.09 nM
IC50 [8]: 7.5 µg/mL

Further lines, results first:

ネズミB13の増殖の阻害 (B13 proliferation assay) [3]: > 70%
Kd [6]: 0.02 nM and < 0.035 nM
B3: ネズミモノクローナル抗体2E3 (antibody, from another filing, mouse IgG2a, V domains shown)
VH: PGLVAPSQSLSITCTVSGFSLTSYSVHWVRQPPGKGLEWLGVIWASGGTDYNSALMSRLSISKDNSKSQVFLKLNSLQTDDAAMYYCARDPPFSLLRLDFWGQGTTLTVSS
VL: SSLSVSAGEKVTMSCKSSQSLLNSGNQKNYLAWYQQKPGQPPKLLIYGASTRESGVPDRFTGSGSGTDFTLTISSVQAEDLAVYYCQNDHSFPFTFGSGTELEIK

ネズミB13の増殖の阻害 (B13 proliferation assay) [3]: > 70%
B4: ネズミモノクローナル抗体2F2 (antibody, from another filing, V domains shown)
VH: B3 VH with Q78R, A82T, F93S, F100Y
VL: B3 VL
